Reference: patent US20060024271A1 (priority 2004, published 2006)
Like-named read-outs stand apart in the source and are kept apart here.

B1: IFN-γ (protein, UniProt P01579 24-161, looked up)
Interferon gamma: QDPYVKEAENLKKYFNAGHSDVADNGTLFLGILKNWKEESDRKIMQSQIVSFYFKLFKNFKDDQSIQKSVETIKEDMNVKFFNSNKKKRDDFEKLTNYSVTDLNVQRKAIHELIQVMAELSPAAKTGKRKRSQMLFRG

How the values were obtained:
Format in all cases: in vivo, BALB/c mice
vaccinia virus [1] = conditions: for survival of vaccinia infected mice: 5×10^3 U/mouse/day i.n., 5 days, started one day before infection, 8 LD50, 21 days monitoring
vaccinia virus [2] = conditions: 8 LD50
vaccinia virus [3] = conditions: IFN-γ 5,000 to 20,000 U i.n., daily for five days from one day after infection; 50 LD50

Molecule | survival of vaccinia infected mice (vaccinia virus [1]) [%] | protection against severe vaccinia infection (vaccinia virus [1]; IFN-α 5,000 U intranasal, 50 LD50 as printed in b34 (FIG. 2)) | survival of vaccinia infected mice (vaccinia virus [2]; IFN-γ 2,000 U only, i.n., 5 days from one day after infection) [%] | protection of vaccinia infected mice (vaccinia virus [2]; IFN-γ 5,000 U) [%] | protection against severe vaccinia infection (vaccinia virus [3])
IFN-α | 100 | 70-80% |  |  | 
B1 | 90 |  | 80 | 100 | 70-80%
